What was measured:
[1] = target: LexA-Trx1 fusion protein (UniProt P22217); assay: yeast one-hybrid interaction assay
[2] = target: histidine-tagged human thioredoxin (human) (UniProt P10599); assay: pull-down
UniProt P10599, sequence (P10599 whole entry): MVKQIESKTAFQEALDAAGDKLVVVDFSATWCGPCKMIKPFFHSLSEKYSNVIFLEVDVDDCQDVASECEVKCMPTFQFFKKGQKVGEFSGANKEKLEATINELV

UniProt P22217, sequence (P22217 2-103): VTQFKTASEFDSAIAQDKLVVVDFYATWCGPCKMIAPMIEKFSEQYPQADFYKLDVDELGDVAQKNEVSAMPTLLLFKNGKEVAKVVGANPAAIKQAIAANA

Substance | β-gal activity (nmol ONP / min 10^7 cells) [1] | Kd [2] [nM]
human p53 expressed in yeast from pRS415-p53 (from UniProt P04637 1-393) (natural protein) | 6.56 | 
purified baculovirus-expressed human p53 (from UniProt P04637 1-393) (natural protein) |  | 940
